# Results from paper doi:10.1101/2022.03.11.483953 (2022).
# No end group written: not given here.
# How the values were obtained:
# [1] = target: T1, Cdc42^2-178 (C-terminally truncated Cdc42 lacking its geranylgeranylation motif) (UniProt Q05062 2-178); assay: FP; GMPPNP-loaded Cdc42
# [2] = target: T1, Cdc42^2-178 (C-terminally truncated …); assay: FP; GDP-loaded Cdc42
# T1 sequence (Q05062 2-178): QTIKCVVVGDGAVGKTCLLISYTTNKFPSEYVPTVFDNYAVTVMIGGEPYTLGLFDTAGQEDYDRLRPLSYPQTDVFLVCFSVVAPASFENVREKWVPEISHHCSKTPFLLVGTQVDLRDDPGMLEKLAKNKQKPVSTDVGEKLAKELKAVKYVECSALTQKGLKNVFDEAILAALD
binder,measurement,setting,value
"QISTPSDFMHIVHMGPAPVMELQQNFIDLQ (also: FITC label, position not given here) [FITC-labeled CRIB peptide of C. elegans MRCK1 (residues 1543-1572)]",Kd,[1],264 µM
same,Kd,[2],1120 µM
